Like-named read-outs stand apart in the source and are kept apart here.
Legend:
YTHDF2 (Homo sapiens) = settings: co-localization with RIG-I and YTHDF2 in HeLa
RIG-I (Homo sapiens) = settings: immunofluorescence co-localization with RIG-I and K63-polyubiquitin in HeLa

| Substance | activity (YTHDF2 (Homo sapiens); 10% m6A random) | activity (YTHDF2 (Homo sapiens)) | activity (RIG-I (Homo sapiens)) |
| --- | --- | --- | --- |
| 10% m6A circFOREIGN | 65.3% | – | – |
| FITC-circFOREIGN | – | 33.8% | 85.5% |

Reference: patent US20220288176
